Measurements as given in patent publication US20210395361A1 (Alector, published 2021).

T1: Histidine-tagged human Siglec-5 (NovoProtein) (human, UniProt O15389 17-434, limits assumed)
T1 construct: Bought soluble protein; also called His-tagged human Siglec-5; not shown: histidine tag
T1 sequence: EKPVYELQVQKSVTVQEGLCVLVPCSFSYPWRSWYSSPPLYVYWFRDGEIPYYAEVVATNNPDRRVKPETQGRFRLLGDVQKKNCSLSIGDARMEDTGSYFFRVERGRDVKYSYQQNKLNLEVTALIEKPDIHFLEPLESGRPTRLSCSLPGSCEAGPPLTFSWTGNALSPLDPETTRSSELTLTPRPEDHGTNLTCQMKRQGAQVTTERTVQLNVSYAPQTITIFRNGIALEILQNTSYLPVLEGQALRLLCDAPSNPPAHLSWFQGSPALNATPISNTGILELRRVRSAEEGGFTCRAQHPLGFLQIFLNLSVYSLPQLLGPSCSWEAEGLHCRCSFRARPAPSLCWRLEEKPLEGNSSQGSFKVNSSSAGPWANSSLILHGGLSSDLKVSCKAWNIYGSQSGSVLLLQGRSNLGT

T2: human Siglec-14 (human, UniProt Q08ET2 17-396)
T2 construct: also called CHO-S14; CHO-S hSiglec-14
T2 sequence: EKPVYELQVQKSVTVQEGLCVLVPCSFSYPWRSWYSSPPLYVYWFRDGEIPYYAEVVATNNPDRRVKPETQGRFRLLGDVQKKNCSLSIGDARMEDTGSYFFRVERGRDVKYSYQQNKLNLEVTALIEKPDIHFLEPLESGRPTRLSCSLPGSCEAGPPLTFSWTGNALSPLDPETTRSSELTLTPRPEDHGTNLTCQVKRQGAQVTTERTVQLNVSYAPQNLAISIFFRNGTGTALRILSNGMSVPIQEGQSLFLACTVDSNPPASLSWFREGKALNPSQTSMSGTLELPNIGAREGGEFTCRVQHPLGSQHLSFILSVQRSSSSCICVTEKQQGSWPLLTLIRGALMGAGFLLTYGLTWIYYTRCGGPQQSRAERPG


Experiments:
[1] = biological target: T1, Histidine-tagged human Siglec-5 …; assay: array SPR, antibody immobilized, His-tagged human Siglec-5 (0-500 nM) in solution; apparent affinity
Description: The apparent binding affinities of the anti-Siglec-5 antibodies were measured by array surface plasmon resonance (SPR), according to standard techniques (Abdiche, et al. (2016) MAbs 8:264-277). Briefly, anti-Siglec-5 antibodies were immobilized on a HC 30M chip at four different densities, at antibody concentration of 10 μg/mL, 2.5 μg/mL, 0.63 μg/mL, and 0.16 μg/mL. Varying concentrations (0-500 nM) of Histidine-tagged human Siglec-5 or cynomolgus Siglec-5 (NovoProtein) were then bound to the captured anti-Siglec-5 surface (5 min injection time, 15 min dissociation time) in HBS-EP⁺/1 mg/mL BSA running buffer. Kinetic analysis was performed using Carterra software to extract association and dissociation rate constants (kₐ and kd, respectively) for each antibody. Apparent affinity constants (KD) were calculated from the ratio kd/kₐ. None of the anti-Siglec-5 antibodies bound to cynomolgus Siglec-5 protein.

[2] = biological target: T2, human Siglec-14; assay: FACS, CHO cells stably transfected with human Siglec-14 (CHO-S14), fluorescent secondary antibody; y-axis Binding (Fold over background); antibody concentration not shown
Description: The anti-Siglec-5 antibodies were evaluated for their ability to bind to CHO cells which were stably transfected with human Siglec-5 (CHO-S5) or human Siglec-14 (CHO-S14). The anti-Siglec-5 antibodies were also evaluated for their ability to bind to primary human neutrophils. Cells were incubated with various dilutions of the anti-Siglec-5 antibodies for 30 minutes on ice in the dark, followed by a 30-minute incubation with a fluorescently-conjugated anti-human IgG secondary antibody. Cells were washed twice in FACS buffer (PBS+2% FBS, 2 mM EDTA), and flow cytometry was performed on a BD FACS Canto. Data were analyzed using FlowJo software (Ashland, Oreg.). In the figures, “hIgG1” and “mIgG1” refer to isotype control antibodies, and “S5/14 1A5” refers to a commercially available antibody that binds both Siglec-5 and Siglec-14 (BioLegend, clone 1A5).

Row | Kd [1] [nM] | koff [1] [s⁻¹] | kon [1] [M⁻¹ s⁻¹] | binding result [2] | Binder
1 | 61 | 0.0013 | 21000 | no binding | S5-183 (antibody, V domains shown, Mouse-derived variable domains; expressed in mammalian cells as full antibody; hIgG1 isotype control) VH: QAYLQQSGPGLVAPSQSLSITCTVSGFSVTSYGVSWVRQPPGKGLEWLGVIWGDGSTNYHSDLISRLSISKDNSKSQVFLKLNSLQIADTATYYCARPRAFYYGSRGYWYFDVWGTGTTVAVSS VL: DIVMTQSPASLSASVGETVTITCRASENIYSYLAWYQQKQGKSPQLLVYNTKTLVEGVPSRFSGSGSDTQFSLKINSLQPEDFGTYYCQHHYGPPPTFGTGTKLELK
2 | 31 | 0.0011 | 36000 | no binding | S5-202 (antibody, V domains shown, Mouse-derived variable domains; expressed in mammalian cells as full antibody; also called S5-PN202) VH: QAYLQQSGPGLVAPSQSLSITCTVSGLSLTSYGVSWVRQPPGKGLEWLGVIWGDGSTNYHSALISRLSISKDNSKSQVFLKLNSLQTDDTATYYCAKPGAFYYGSRYYWYFDVWGTGTTVTVSS VL: DIQMTQAHKVMSTSVGDRVSITCKASQDVSTAVAWYQQKPGQSPKLLIYSASYRYTGVPDRFTGSGSGTDFTFTISSVQAEDLAVYYCQQHYSPPPTFGGGTRREIK
3 | 5.3 | 0.00085 | 160000 | no binding | S5-182 (antibody, V domains shown, Mouse-derived variable domains; expressed in mammalian cells as full antibody; hIgG1 isotype control) VH: QAYLQQSGAELVKPGASVKLSCKASGYTFTSYWLHWVKQRPGQGLEWIGMIHPNSGSTDYNERFKSKATLIVDKSSSTAYMQLSSLTSEDSAVYYCAKTFYYFDYWGQGTALTVSS VL: DVVMTQSPSSMYASLGERVTITCKASQDINSYLSWFQQKPGKSPKTLIYRANRLVDGVPSRFSGSGSGQDYSLTISSLEYEDMGIYYCLQYDELYTFGGGTKLEIK
